The text below walks through data of IntAct's records for PubMed 21358628.

B1: DNA-directed RNA polymerase III subunit RPC3 (Homo sapiens), Q9BUI4 (parent)
chain: MTQAEIKLCSLLLQEHFGEIVEKIGVHLIRTGSQPLRVIAHDTGTSLDQVKKALCVLVQHNLVSYQVHKRGVVEYEAQCSRVLRMLRYPRYIYTTKTLYSDTGELIVEELLLNGKLTMSAVVKKVADRLTETMEDGKTMDYAEVSNTFVRLADTHFVQRCPSVPTTENSDPGPPPPAPTLVINEKDMYLVPKLSLIGKGKRRRSSDEDAAGEPKAKRPKYTTDNKEPIPDDGIYWQANLDRFHQHFRDQAIVSAVANRMDQTSSEIVRTMLRMSEITTSSSAPFTQPLSSNEIFRSLPVGYNISKQVLDQYLTLLADDPLEFVGKSGDSGGGMYVINLHKALASLATATLESVVQERFGSRCARIFRLVLQKKHIEQKQVEDFAMIPAKEAKDMLYKMLSENFMSLQEIPKTPDHAPSRTFYLYTVNILSAARMLLHRCYKSIANLIERRQFETKENKRLLEKSQRVEAIIASMQATGAEEAQLQEIEEMITAPERQQLETLKRNVNKLDASEIQVDETIFLLESYIECTMKRQ
partner: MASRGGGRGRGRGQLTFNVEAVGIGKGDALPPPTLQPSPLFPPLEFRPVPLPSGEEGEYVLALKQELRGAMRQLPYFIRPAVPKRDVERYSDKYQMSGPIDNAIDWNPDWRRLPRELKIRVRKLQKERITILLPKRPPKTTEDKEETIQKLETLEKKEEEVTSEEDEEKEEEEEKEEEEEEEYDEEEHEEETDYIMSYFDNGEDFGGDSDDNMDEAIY
B2: DNA-directed RNA polymerase III subunit RPC3 (Homo sapiens), Q9BUI4 (parent)
chain: B1 chain

The variants in one assay derive from B1. The note with it: with rpc7l_human POLR3GL.
Regarding MTQAEIKLCSLLLQEHFGEIVEKIGVHLIRTGSQPLRVIAHDTGTSLDQVKKALCVLVQHNLVSYQVHKRGVVEYEAQCSRVLRMLRYPRYIYTTKTLYSDTGELIVEELLLNGKLTMSAVVKKVADRLTETMEDGKTMDYAEVSNTFVRLADTHFVQRCPSVPTTENSDPGPPPPAPTLVINEKDMYLVPKLSLIGKGKRRRSSDEDAAGEPKAKRPKYTTDNKEPIPDDGIYWQANLDRFHQHFRDQAIVSAVANRMDQTSSEIVRTMLRMSEITTSSSAPFTQPLSSNEIFRSLPVGYNISKQVLDQYKTLLADDPLEFVGKSGDSGGGMYVINLHKALASLATATLESVVQERFGSRCARIFRLVLQKKHIEQKQVEDFAMIPAKEAKDMLYKMLSENFMSLQEIPKTPDHAPSRTFYLYTVNILSAARMLLHRCYKSIANLIERRQFETKENKRLLEKSQRVEAIIASMQATGAEEAQLQEIEEMITAPERQQLETLKRNVNKLDASEIQVDETIFLLESYIECTMKRQ [L312K], the “effect of a mutation on the interaction” value is recorded as “disrupting interaction”.

In a further assay the parent is B2. The note with it: with rpc7_human POLR3G.
For the variant MTQAEIKLCSLLLQEHFGEIVEKIGVHLIRTGSQPLRVIAHDTGTSLDQVKKALCVLVQHNLVSYQVHKRGVVEYEAQCSRVLRMLRYPRYIYTTKTLYSDTGELIVEELLLNGKLTMSAVVKKVADRLTETMEDGKTMDYAEVSNTFVRLADTHFVQRCPSVPTTENSDPGPPPPAPTLVINEKDMYLVPKLSLIGKGKRRRSSDEDAAGEPKAKRPKYTTDNKEPIPDDGIYWQANLDRFHQHFRDQAIVSAVANRMDQTSSEIVRTMLRMSEITTSSSAPFTQPLSSNEIFRSLPVGYNISKQVLDQYKTLLADDPLEFVGKSGDSGGGMYVINLHKALASLATATLESVVQERFGSRCARIFRLVLQKKHIEQKQVEDFAMIPAKEAKDMLYKMLSENFMSLQEIPKTPDHAPSRTFYLYTVNILSAARMLLHRCYKSIANLIERRQFETKENKRLLEKSQRVEAIIASMQATGAEEAQLQEIEEMITAPERQQLETLKRNVNKLDASEIQVDETIFLLESYIECTMKRQ [L312K], the “effect of a mutation on the interaction” value was “disrupting interaction”.
